The values that follow come from article PMC11407402.

Several values for one entry are separate records, joined by “and”; a condition that tells them apart may be missing. Equal entries are not always repeated.

For this assay, the target named is non-glycosylated recombinant FcγRIIIa, 158 V allele, immobilised in the TSKgel FcγR-IIIA-NPR column. Description: affinity HPLC on immobilised receptor.

For the substance “anti-CD20 antibody (rituximab V regions), wild-type human IgG1”, the elution time was 14.4 min and 16.2 min and 17.9 min; the mean elution time worked out at 15.5 min.
